In PMC3161515 (Molecular cell, 2011) one finds Pins activation (%) and Kd data, which are given here for two molecules.

Assay [1] has as its target tetramethylrhodamine labeled Mud peptide (TMR-Mud) (Drosophila). In words: fluorescence polarisation. On the technique in general: Polarisation of emitted light reports the rotation of a fluorescent probe.
Assay [2] concerns the target T1, YFP-ΔGL1,2 Pins-CFP fusion protein (Pins FRET biosensor) (Drosophila, UniProt Q9VB22 1-658, R486F | R570F).
T1 sequence (looked up): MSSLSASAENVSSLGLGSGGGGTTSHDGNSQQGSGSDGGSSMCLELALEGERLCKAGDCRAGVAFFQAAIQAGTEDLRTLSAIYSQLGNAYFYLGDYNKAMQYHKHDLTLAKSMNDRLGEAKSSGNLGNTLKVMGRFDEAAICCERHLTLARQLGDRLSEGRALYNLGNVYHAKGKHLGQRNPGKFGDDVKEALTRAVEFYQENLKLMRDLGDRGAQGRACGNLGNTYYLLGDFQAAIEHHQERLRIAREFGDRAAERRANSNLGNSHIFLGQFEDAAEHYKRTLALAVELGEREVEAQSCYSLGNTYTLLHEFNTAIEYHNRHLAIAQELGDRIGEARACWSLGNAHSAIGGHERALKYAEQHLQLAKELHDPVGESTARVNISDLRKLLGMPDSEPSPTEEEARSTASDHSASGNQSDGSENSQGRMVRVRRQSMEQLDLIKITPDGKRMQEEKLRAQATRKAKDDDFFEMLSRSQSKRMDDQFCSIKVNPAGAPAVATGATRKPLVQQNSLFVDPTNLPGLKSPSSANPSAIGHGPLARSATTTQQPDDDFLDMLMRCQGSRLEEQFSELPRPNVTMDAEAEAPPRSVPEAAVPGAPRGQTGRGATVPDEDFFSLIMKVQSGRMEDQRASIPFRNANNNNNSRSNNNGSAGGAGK
In words: FRET or BRET. On the technique in general: In BRET a luciferase serves as donor, and the signal depends on an acceptor being close.

B1: ΔGL1,2 Pins (R486F and R570F) (natural protein)
chain: T1 sequence (looked up)
As for B1, in assay [1], the Pins activation (%) was 85%.

B2: heterotrimeric G-protein alpha subunit Gαi, GDP-loaded (natural protein, UniProt P20353 1-355, looked up)
chain: MGCAVSTARDKEAIERSKNIDRALRAEGERAASEVKLLLLGAGESGKSTIVKQMKIIHDTGYSQEECEEYRRVVFSNTVQSLMVIIRAMGRLKIEFADPSRTDIARQFFTHASAADEGILLPEIVLLMKKLWADGGVQQSFARSREYQLNDSAGYYLNSLDRIAQPNYIPTQQDVLRTRVKTTGIIETHFSCKQLHFKLFDVGGQRSERKKWIHCFEGVTAIIFCVALSGYDLVLAEDEEMNRMIESLKLFDSICNSKWFVETSIILFLNKKDLFEEKIKRSPLTICFPEYTGTNTFEEAANYIRMKFENLNKRKDQKEIYTHLTCATDTNNVKFVFDAVTDVIIKNNLKQIGLF
For orientation: Kd means the concentration at which binding is half-saturated. As to B2, binding in assay [2] was put at a Kd of 3.4 ± 0.3 µM.
